Changes are numbered by the printed parent chain. Blank lines part the entries; values can stand above or below the binder they belong to.
Legend:
[1] = target: T1, C. elegans SYG-2 ectodomain (C. elegans, UniProt Q9U3P2 20-1084); assay: ITC + SPR
T1 sequence (looked up): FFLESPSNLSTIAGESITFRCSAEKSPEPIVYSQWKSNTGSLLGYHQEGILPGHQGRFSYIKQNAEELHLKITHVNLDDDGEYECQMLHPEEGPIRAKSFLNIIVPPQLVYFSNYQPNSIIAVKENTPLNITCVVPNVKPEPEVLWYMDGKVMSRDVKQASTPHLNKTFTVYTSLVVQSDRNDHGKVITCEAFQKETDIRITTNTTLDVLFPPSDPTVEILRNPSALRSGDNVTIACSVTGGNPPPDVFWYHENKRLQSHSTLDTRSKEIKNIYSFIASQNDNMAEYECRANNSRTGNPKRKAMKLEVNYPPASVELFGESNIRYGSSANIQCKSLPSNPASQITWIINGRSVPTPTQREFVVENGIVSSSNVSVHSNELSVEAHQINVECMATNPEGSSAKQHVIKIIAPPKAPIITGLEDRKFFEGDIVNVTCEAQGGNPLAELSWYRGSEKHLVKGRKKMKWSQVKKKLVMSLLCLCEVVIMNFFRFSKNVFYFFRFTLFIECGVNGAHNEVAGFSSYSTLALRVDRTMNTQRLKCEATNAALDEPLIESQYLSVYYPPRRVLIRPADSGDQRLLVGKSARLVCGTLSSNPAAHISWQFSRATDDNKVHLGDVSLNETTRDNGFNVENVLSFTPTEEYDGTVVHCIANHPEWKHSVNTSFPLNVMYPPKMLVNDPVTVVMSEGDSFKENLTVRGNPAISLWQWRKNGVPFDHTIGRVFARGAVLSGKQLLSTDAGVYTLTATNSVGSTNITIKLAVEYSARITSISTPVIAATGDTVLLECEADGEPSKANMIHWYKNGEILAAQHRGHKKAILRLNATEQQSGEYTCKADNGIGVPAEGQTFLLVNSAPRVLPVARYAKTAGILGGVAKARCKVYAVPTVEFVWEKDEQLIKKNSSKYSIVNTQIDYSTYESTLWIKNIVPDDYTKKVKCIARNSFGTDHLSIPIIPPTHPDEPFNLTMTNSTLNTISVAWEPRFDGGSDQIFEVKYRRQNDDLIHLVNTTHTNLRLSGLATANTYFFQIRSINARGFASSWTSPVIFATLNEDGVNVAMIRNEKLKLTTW

[2] = target: wild type SYG-2 (SPR series with mutants, construct not stated) (C. elegans); assay: SPR

Kd [1]: ~600 nM
B1: C. elegans SYG-1 ectodomain (domain or fragment, UniProt B1Q236 19-551, looked up)
chain: QQLQQRIVEAPKDTLAAVGETAILTCRVEHQQGPVQWMKDDFGLGTDRDKPLPGNKRYRMVGSAANGEYNLEISNVTLFDDDDFACQISESDHAKAVVSSKAKLTVLVRPTPPKIVKSHHSLKAIAGDPITQSCLSRKGKPPPTIGWAIASDEHGKHIVSWLGESRSKFGGIHAKPEISQETVIAHVNETTQVEEGGNNSREDSSIYSIMSNLSFIPRPEDDHKYLICISQHMTFPNKIEVDSVKLSLRYAPQINLTVASKLPLRENGSALLACNVNAKPLDNVKISWYKGNQKLRETGDTLTFETLKMEDHNRDIFCEATNEIGTTRGSIKLNVAFGARIMSTSQDKEVNEGDNAFFHCATLANPAPAIFWTRGDSDEIIGHGENLTLENVRTWQQGNYNCTATVEGFRKQILSHYLHIRGPPTVSMKDEVSASLDEATEIICEISGRPKTNNVRWTVNGKEINFNNGRITVHQYPKPYGKESILKIKDLKEEDFGVYNCSANNGLGFDNRGTLLKKRNILDWIVITAKFDR

fold weaker affinity than wild-type SYG-1 [2]: 7 fold
B2: SYG-1 Q54 mutant (domain or fragment)
chain: B1 chain with Q36A

Source: publication PMC3962013 (Cell, 2014)
